Here are results for 3 substances from US20110319287A1, “MODULATOR ASSAY” (ADDEX PHARMA S.A., priority 2009, published 2011).

Common to all, as to test: cell-based or functional assay
The target of assay [1] is Recombinant Human TL1A/TNFSF15 (R&D Systems, Cat N° 1319-TL) (human) (UniProt O95150).
The target in assay [2] is DR3 receptor expressed in HeLa TRADD DR3 cells (Homo sapiens (Human)) (UniProt Q93038).
Assay [3] addresses recombinant human TNF-α (Peprotech, Cat N° 300-01A) (human) (UniProt P01375).

Sequence of recombinant human TNF-α (Peprotech, Cat N° 300-01A) (human) (P01375 77-233 limits assumed): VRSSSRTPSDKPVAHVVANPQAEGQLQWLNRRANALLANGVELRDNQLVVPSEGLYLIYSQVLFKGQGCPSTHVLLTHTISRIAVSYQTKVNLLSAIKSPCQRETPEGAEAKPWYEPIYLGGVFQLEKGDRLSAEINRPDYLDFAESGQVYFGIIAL
Sequence of Recombinant Human TL1A/TNFSF15 (R&D Systems, Cat N° 1319-TL) (human) (O95150 72-251 limits assumed): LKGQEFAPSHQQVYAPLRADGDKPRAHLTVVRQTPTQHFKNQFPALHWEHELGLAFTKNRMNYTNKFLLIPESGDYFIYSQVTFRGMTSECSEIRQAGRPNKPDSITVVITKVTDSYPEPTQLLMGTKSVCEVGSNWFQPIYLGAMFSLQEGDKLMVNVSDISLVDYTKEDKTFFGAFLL
Sequence of DR3 receptor expressed in HeLa TRADD DR3 cells (Homo sapiens (Human)) (Q93038 other isoform, or with tags, fused parts or gaps, form in doubt): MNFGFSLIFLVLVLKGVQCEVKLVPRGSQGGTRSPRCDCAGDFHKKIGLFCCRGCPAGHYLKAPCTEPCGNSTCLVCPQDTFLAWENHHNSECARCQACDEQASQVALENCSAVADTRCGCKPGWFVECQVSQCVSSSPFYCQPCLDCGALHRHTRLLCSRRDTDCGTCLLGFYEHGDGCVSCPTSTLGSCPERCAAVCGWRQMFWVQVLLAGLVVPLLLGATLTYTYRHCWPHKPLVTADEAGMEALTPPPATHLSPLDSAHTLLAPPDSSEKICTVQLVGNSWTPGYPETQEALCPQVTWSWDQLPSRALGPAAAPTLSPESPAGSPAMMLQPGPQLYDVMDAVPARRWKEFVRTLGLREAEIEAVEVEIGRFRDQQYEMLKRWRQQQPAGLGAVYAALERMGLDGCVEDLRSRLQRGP

For the substance “Recombinant Human DcR3/TNFRSF6B/Fc Chimera, CF (R&D Systems, Cat N° 142-DC) (from UniProt O95407 30-300) (Fc fusion)”, the IC50 of inhibition of TL1A-induced TRADD-EYFP relocalisation in HeLa TRADD DR3 cells (300 ng/ml TL1A, FIG. 17) in assay [1] is 1.41 µg/mL.

Regarding “Recombinant Human TL1A/TNFSF15 (R&D Systems, Cat N° 1319-TL) (from UniProt O95150 72-251) (ligand)”, in assay [2], the EC50 of TL1A-induced relocalisation of TRADD-EYFP in HeLa TRADD DR3 cells (FIG. 17) stood at 0.0043 µg/mL.

Consider “etanercept (Enbrel®, from Amgen, Inc.) (Fc fusion)”, for which, in assay [3], the IC50 of inhibition of TNF-induced TRADD-EYFP relocalisation in HeLa TRADD DR3 cells (100 ng/ml TNF, FIG. 19) is 0.0538 µg/mL and the IC50 of inhibition of TNF-induced relocalisation of TRADD-EYFP (TNF dose 300 ng/ml, FIG. 9) is 2740 nM.
